Source: patent US20210346432A1

Tests used:
[1] = target: T1, ET140-p25 (human); experiment: peptide ELISA on streptavidin plate, antibody 1 ug/mL
T1 sequence (peptide, N-terminal biotin): SGSGLRCSSNTPPLTCQRY

[2] = target: T2, ET140-p26 (human); experiment: as above
T2 sequence (peptide, N-terminal biotin): SGSGRCSSNTPPLTCQRYC

A450 [1]: 0.583 | A450 [2]: 0.225
B1: ET140-153 mIgG1 (antibody, V domains shown)
VH: QVQLVQSGAEVKKPGSSVKVSCKASGGTFSSYAISWVRQAPGQGLEWMGRIIPILGIANYAQKFQGRVTITADKSTSTAYMELSSLRSEDTAVYYCARGGYYSHDMWSEDWGQGTLVTVSS
VL: LPVLTQPPSASGTPGQRVTISCSGRSSNIGSNSVNWYRQLPGAAPKLLIYSNNQRPPGVPVRFSGSKSGTSASLAISGLQSEDEATYYCATWDDNLNVHYVFGTGTKVTVLG
